Assay results as given in publication PMC9917443.

Biological target: purified recombinant SD1/2 protein
Assay: ITC; peptide (300 μM in the syringe) injected into SD1/2 protein (30 μM) in the cell; 25°C; 20 mM NaPi (pH 6.8), 50 mM NaCl, 0.5 mM EDTA; one-site binding model

Kd [nM] | stoichiometry N | Binder
> 300000 | – | Ac-DWGADTVSGDGYDAWDD-NH2 [sc-APP17]
543 | 1.05 | Ac-DDSDVWWGGADTDYADG-NH2 [APP17]
